# Entries after “also recorded” stand apart in the source; their conditions may differ.
# Test system: carboxylation of FIXgla-PC reporter protein in HEK293 cells (reduction of KO to vitamin K)
# Experiment: Cell-based VKOR activity assay: recombinant VKOR/VKORH expressed in FIXgla-PC/HEK293 cells with KO and warfarin, carboxylated reporter by ELISA
# Set-up: species or system human
# Conditions: for ability to promote carboxylation of the reporter protein compared to recombinant human VKOR: FIXgla-PC HEK293 (FIGS. 9, 10); for Relative activity: Human Y139F: VKOR of the organism compared to human Y139F VKOR, cell-based carboxylation; for activity in the in vivo assay: cysteine mutants of VKOR-Y139F, 4 μM warfarin (FIGS. 17A-B); for sensitivity to warfarin: warfarin level used in these assays; for ability of human VKOR with replaced residues 122-139 to use KO to carboxylate the reporter: 48 h, HEK293 (FIG. 11C); for carboxylation of reporter protein by human VKOR cysteine mutants: Y139F background, HEK293 (FIG. 13); for amount of carboxylated reporter protein with mutated recombinant human VKOR: FIG. 12, compared to human VKOR Y139F
molecule,measurement,setting,value
"VKOR: human vitamin K epoxide reductase, AAS01052, SEQ ID NO:5",activity in cell-based in vivo activity assays,,active in the vitamin K cycle
"Hamster: Syrian golden hamster (AV12) VKOR, SEQ ID NO:3, Y139F warfarin resistant (protein, listed as Cricetulus griseus) MGTTWRSPGRWRLALCLAGLALSLYALHVKAARARDEDYRALCDVGSAISCSRVFSSRWGKGLGLVEHVLGPDSVLNQNSIFGCIFYTIQLLLGCLRGRWAFLLLVLSSLVSFAGSVYLAWILFFVLYDFCIVCITTYVINVGLMLLNFQDVPEHKAKRH",ability to promote carboxylation of the reporter protein compared to recombinant human VKOR,"5 μM KO, 2 μM warfarin",undiminished ability
same,Relative activity: Human Y139F,,"Yes, greater"
"C43-51-DEL: VKOR-Y139F with deletion of C43, C51 and the residues between them (protein, UniProt Q9BQB6 1-163, looked up, variant Y139F del43-51) Vitamin K epoxide reductase …: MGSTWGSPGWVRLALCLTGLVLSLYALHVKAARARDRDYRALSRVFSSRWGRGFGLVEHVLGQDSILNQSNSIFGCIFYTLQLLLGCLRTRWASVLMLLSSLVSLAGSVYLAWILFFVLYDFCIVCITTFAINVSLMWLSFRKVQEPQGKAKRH",activity in the in vivo assay,5 μM KO,~60%
"Nematostella: VKOR from Nematostella rendered warfarin resistant by Y135F mutation, SEQ ID NO:10 (protein, listed as Nematostella vectensis) MDKLGGFRMMLCVAGVFLSAYALNVEVSKSNNKDYRAICDISEKISCSKVFSSKYGTGFGLVEPIFGKDSTLNVPNSIFGIMFYTMVFLLGFSRSKLAAQLSVFSAVLSCLGSVYLGCILYFVLQDVCIICISTYVVNACLLVVNSLSLVNLQERTKRKQK",ability to promote carboxylation of the reporter protein compared to recombinant human VKOR,"5 μM KO, 2 μM warfarin",consistently better; also recorded: considerably more active
same,ability to promote carboxylation of the reporter protein compared to recombinant human VKOR,"5 μM KO, 2 μM warfarin, listed as Nematostella Y135F",greater ability to stimulate carboxylation
same,Relative activity: Human Y139F,,"Yes, greater"
"Acropora: Acropora VKOR (translation of EZ012735, SEQ ID NO:9), Y136F warfarin resistant (protein, listed as Acropora millepora) MVSFLGISRLLVCLAGIALSIYALHVELSKAHDKDYKALCDINEHMSCSKVFTSKYGTGFGLVEPLLGKNHPFNVPNSIFGIIFYSLIIILGVVSGKFAALMMFLFSLASCVGSVYLGYILFYILHDTCVVCISTYVVNACLFVINMITLNDALSAPSPKKKKN",ability to promote carboxylation of the reporter protein compared to recombinant human VKOR,"5 μM KO, 2 μM warfarin",also promotes carboxylation of the reporter protein
same,Relative activity: Human Y139F,,"Yes, greater"
"MT-VKORH: Mycobacterium tuberculosis VKOR homologue, NP_217484, SEQ ID NO:18 (protein, listed as Mycobacterium tuberculosis) MVAARPAERSGDPAAVRVPVPSAWWVLIGGVIGLFASMTLTVEKVRILLDPIYVPSCNVNPIVSCGSVMTTPQASLLGFPNPLLGIAGFTVVVVTGVLAVAKVPLPRWYWIGLAVGILVGVAFVHWLIFQSLYRIGALCPYCMVVWAVIATLLVVVASIVFGPMRENRGSQERVGARLLYQWRWSLATLWFTTVFLLIMVRFWDYSTLI",ability to promote carboxylation of the reporter protein compared to recombinant human VKOR,"5 μM KO, 2 μM warfarin",greater activity
same,support of carboxylation of the reporter protein with KO as substrate,"5 μM KO, 4 μM warfarin, 48 h (FIG. 15B)",supported carboxylation of the reporter protein
same,sensitivity to warfarin,,naturally resistant to warfarin
same,sensitivity to warfarin,listed as VKOR from Mycobacterium tuberculosis,resistant to warfarin at the doses employed
"VKORC1L1: the VKOR paralogue, four TMDs (protein, UniProt Q8N0U8 1-176, looked up) Vitamin K epoxide reductase …: MAAPVLLRVSVPRWERVARYAVCAAGILLSIYAYHVEREKERDPEHRALCDLGPWVKCSAALASRWGRGFGLLGSIFGKDGVLNQPNSVFGLIFYILQLLLGMTASAVAALILMTSSIMSVVGSLYLAYILYFVLKEFCIICIVTYVLNFLLLIINYKRLVYLNEAWKRQLQPKQD",activity in cell-based in vivo activity assays,,active in the vitamin K cycle
"hVKOR Roseiflexus: human VKOR with residues 122-139 replaced by Roseiflexus VKOR 300-317, SEQ ID NO:33 (protein, Human VKOR with amino acids 122-139 substituted with amino acids 300-317 of Roseiflexus sp. RS-1 VKOR (RefSeq accession no. YP_001274867)) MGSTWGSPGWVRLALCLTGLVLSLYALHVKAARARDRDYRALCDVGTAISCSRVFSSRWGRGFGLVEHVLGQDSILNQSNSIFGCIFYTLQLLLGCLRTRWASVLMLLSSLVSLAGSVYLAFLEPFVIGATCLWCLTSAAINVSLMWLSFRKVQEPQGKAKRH",ability of human VKOR with replaced residues 122-139 to use KO to carboxylate the reporter,"5 μM KO, 2 μM warfarin",only the human VKOR substituted with the M. tuberculosis domain functions as a VKOR
"hVKOR Synechococcus: human VKOR with residues 122-139 replaced by Synechococcus VKOR 120-137, SEQ ID NO:31 (protein, Human VKOR with amino acids 122-139 substituted with amino acids 120-137 of Synechococcus sp. JA-2-3B′a(2-13) VKOR (RefSeq accession no. YP_478481)) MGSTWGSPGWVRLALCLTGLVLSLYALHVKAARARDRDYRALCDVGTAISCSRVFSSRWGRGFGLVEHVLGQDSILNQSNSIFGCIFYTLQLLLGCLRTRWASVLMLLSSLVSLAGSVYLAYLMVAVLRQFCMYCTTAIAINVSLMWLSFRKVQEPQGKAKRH",ability of human VKOR with replaced residues 122-139 to use KO to carboxylate the reporter,"5 μM KO, 2 μM warfarin",only the human VKOR substituted with the M. tuberculosis domain functions as a VKOR
"C51A/Y139F: human VKOR with C51A and Y139F mutations (protein, Human VKOR with C51A mutation, human VKOR with C51A and Y139F mutations) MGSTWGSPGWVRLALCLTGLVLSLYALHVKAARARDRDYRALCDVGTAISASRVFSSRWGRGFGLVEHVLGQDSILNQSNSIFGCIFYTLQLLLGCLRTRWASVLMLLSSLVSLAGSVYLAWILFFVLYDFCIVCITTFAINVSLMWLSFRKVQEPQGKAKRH",ability to promote carboxylation of the reporter protein compared to recombinant human VKOR,"5 μM KO, 2 μM warfarin",greater activity
same,carboxylation of reporter protein by human VKOR cysteine mutants,4 μM warfarin,greater activity than VKORY139F
same,activity relative to human VKOR (Y139F),"both human forms carry Y139F, 5 μM KO, 2 μM warfarin",about 2 fold
"5C-Mut: VKOR-Y139F with C16A, C43A, C51A, C85A and C96A simultaneously (protein, UniProt Q9BQB6 1-163, looked up, variant Y139F C16A C43A C51A C85A C96A) Vitamin K epoxide reductase …: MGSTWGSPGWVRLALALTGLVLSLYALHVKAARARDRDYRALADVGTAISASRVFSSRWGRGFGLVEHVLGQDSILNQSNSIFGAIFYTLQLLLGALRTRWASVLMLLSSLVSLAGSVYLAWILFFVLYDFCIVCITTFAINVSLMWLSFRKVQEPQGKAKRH",carboxylation of reporter protein by human VKOR cysteine mutants,4 μM warfarin,indistinguishable from VKORY139F
same,activity in the in vivo assay,5 μM KO,~40%
"Y139W_IV133PY: human VKOR with residue 139 changed to W and IV at 133-134 changed to PY (protein, UniProt Q9BQB6 1-163, looked up, variant Y139W I133P V134Y) Vitamin K epoxide reductase …: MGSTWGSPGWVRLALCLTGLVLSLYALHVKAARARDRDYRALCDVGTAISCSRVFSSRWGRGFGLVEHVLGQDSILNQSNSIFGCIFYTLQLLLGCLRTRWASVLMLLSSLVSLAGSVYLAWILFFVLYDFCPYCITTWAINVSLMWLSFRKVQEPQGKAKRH",amount of carboxylated reporter protein with mutated recombinant human VKOR,,does not restore activity
"Y139W: human VKOR with tyrosine 139 mutated to tryptophan (protein, UniProt Q9BQB6 1-163, looked up, variant Y139W) Vitamin K epoxide reductase …: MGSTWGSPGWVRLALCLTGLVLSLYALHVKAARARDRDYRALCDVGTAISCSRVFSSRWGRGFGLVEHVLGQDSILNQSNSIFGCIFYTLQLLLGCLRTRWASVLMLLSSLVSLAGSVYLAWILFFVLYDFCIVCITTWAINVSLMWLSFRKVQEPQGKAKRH",amount of carboxylated reporter protein with mutated recombinant human VKOR,,further reduction
"C43/51A: VKOR-Y139F with double mutation C43A and C51A (protein, UniProt Q9BQB6 1-163, looked up, variant Y139F C43A C51A) Vitamin K epoxide reductase …: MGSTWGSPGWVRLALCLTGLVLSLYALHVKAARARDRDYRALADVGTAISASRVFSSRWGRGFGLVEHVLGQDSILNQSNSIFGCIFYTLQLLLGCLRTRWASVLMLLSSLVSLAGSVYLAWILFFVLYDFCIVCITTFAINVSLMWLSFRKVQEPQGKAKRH",carboxylation of reporter protein by human VKOR cysteine mutants,4 μM warfarin,restores normal (VKORY139F) activity
same,activity in the in vivo assay,5 μM KO,~60%
"Platypus: duck-billed platypus VKOR, SEQ ID NO:16, lacks cysteines corresponding to 43 and 51 (protein, listed as Ornithorhynchus anatinus) MGAWVPTRSARVVGPRALGSRVATAVQPSAVDPDTRHDRIPSLRWGRGFGLVEMVLGPDSSLNQPNSVFGLLFYSLQLLLGCSRAPWTSVVLALSSLLSLAGSLYLAWILFFVLHDFCFVCITTYAINVGLALLNYRRLKQAQGKVMKYCDESSPASSLLERRFYSGGGLRNGGSAASFPFPPATGH",ability to promote carboxylation of the reporter protein compared to recombinant human VKOR,"5 μM KO, 2 μM warfarin",inactive
same,Relative activity: Human Y139F,,No

# Source: patent US9631002B2, “Methods and compositions for producing active vitamin K-dependent proteins” (The University of North Carolina at Chapel Hill, priority 2010, dated 2017)
